Experimental findings from the supplement of paper PMC9112550, “Optimization of the antimicrobial peptide Bac7 by deep mutational scanning” (BMC Biology, 2022) are described below.

In the data set the test system is Escherichia coli TOP10. Briefly: shrunken log2 fold change of peptide-encoding DNA abundance (4.5 h post-induction vs induction); higher = less antimicrobial activity (less host growth inhibition). Particulars: time post-induction: 4.5 h; library: site-saturation at positions 5, 18, 19, 20.
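Also: peptides expressed intracellularly from a pBAD plasmid library in pooled LB shake-flask culture, induced with 0.3% L-arabinose, DNA abundance read by NGS, three biological replicates, DESeq2 with apeglm shrinkage.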

Consider RRIRDRPPRLPRPRPRPRTWPRP, for which the “shrunken log2 fold change” value was 0.0224.

As for RRIRCRPPRLPRPRPRPHGRPRP, the “shrunken log2 fold change” value was found to be 0.0979.

Regarding RRIRWRPPRLPRPRPRPSSMPRP, the “shrunken log2 fold change” value is -0.411.

For RRIRPRPPRLPRPRPRPFNFPRP, the “shrunken log2 fold change” value was -0.155.

Consider RRIRNRPPRLPRPRPRPFTTPRP, for which the “shrunken log2 fold change” value is -0.0245.

In the case of RRIRHRPPRLPRPRPRPIKVPRP, the “shrunken log2 fold change” value turned out to be 0.172.

With RRIRLRPPRLPRPRPRPHTVPRP, the “shrunken log2 fold change” value was -0.267.

On to RRIRTRPPRLPRPRPRPCCCPRP, for which the “shrunken log2 fold change” value came to 0.276.

Turning to RRIRSRPPRLPRPRPRPGNPPRP, the “shrunken log2 fold change” value came to 0.0113.

As for RRIRMRPPRLPRPRPRPQHCPRP, the “shrunken log2 fold change” value was -0.458.

Consider RRIRRRPPRLPRPRPRPWGKPRP, for which the “shrunken log2 fold change” value was -0.0259.

As for RRIRVRPPRLPRPRPRPCVQPRP, the “shrunken log2 fold change” value came to 0.0444.

For the sequence RRIRTRPPRLPRPRPRPSQDPRP, the “shrunken log2 fold change” value was -0.355.

With RRIRSRPPRLPRPRPRPCLRPRP, the “shrunken log2 fold change” value is -0.385.

With RRIRIRPPRLPRPRPRPRAFPRP, the “shrunken log2 fold change” value was -0.0671.

For the sequence RRIRNRPPRLPRPRPRPRETPRP, the “shrunken log2 fold change” value was -0.0277.

In the case of RRIRCRPPRLPRPRPRPTVQPRP, the “shrunken log2 fold change” value stood at 0.0608.

For the sequence RRIRHRPPRLPRPRPRPQTWPRP, the “shrunken log2 fold change” value is -0.332.

For RRIRKRPPRLPRPRPRPCFIPRP, the “shrunken log2 fold change” value was -0.13.

RRIRFRPPRLPRPRPRPRWDPRP: the “shrunken log2 fold change” value was found to be 0.284.

In the case of RRIRWRPPRLPRPRPRPATSPRP, the “shrunken log2 fold change” value came to 0.385.

On to RRIRVRPPRLPRPRPRPVYHPRP, for which the “shrunken log2 fold change” value was -0.544.

As to RRIRVRPPRLPRPRPRPNWVPRP, the “shrunken log2 fold change” value was found to be 0.213.

As for RRIRLRPPRLPRPRPRPNNFPRP, the “shrunken log2 fold change” value was -0.184.

In the case of RRIRGRPPRLPRPRPRPFLDPRP, the “shrunken log2 fold change” value stood at 0.209.

As to RRIRERPPRLPRPRPRPYYNPRP, the “shrunken log2 fold change” value was -0.675.

RRIRLRPPRLPRPRPRPFRRPRP: the “shrunken log2 fold change” value was -0.0943.

Take RRIRHRPPRLPRPRPRPRRLPRP: the “shrunken log2 fold change” value is -0.0808.

As for RRIRQRPPRLPRPRPRPVCIPRP, the “shrunken log2 fold change” value is -0.39.

Regarding RRIRDRPPRLPRPRPRPQVPPRP, the “shrunken log2 fold change” value is -0.0122.

On to RRIRQRPPRLPRPRPRPATLPRP, for which the “shrunken log2 fold change” value is -0.0197.

RRIRLRPPRLPRPRPRPMQNPRP: the “shrunken log2 fold change” value was found to be 0.141.

Consider RRIRGRPPRLPRPRPRPQTQPRP, for which the “shrunken log2 fold change” value stood at 2.07.

In the case of RRIRKRPPRLPRPRPRPELAPRP, the “shrunken log2 fold change” value is 2.83.

For RRIRMRPPRLPRPRPRPFMDPRP, the “shrunken log2 fold change” value is -0.119.

As to RRIRKRPPRLPRPRPRPLIKPRP, the “shrunken log2 fold change” value was -0.338.

Take RRIRWRPPRLPRPRPRPETEPRP: the “shrunken log2 fold change” value was determined as 0.411.

As for RRIRMRPPRLPRPRPRPSYCPRP, the “shrunken log2 fold change” value was -0.236.

For the sequence RRIRNRPPRLPRPRPRPNFCPRP, the “shrunken log2 fold change” value is -0.0258.

With RRIRNRPPRLPRPRPRPCQMPRP, the “shrunken log2 fold change” value was -0.0139.

As to RRIRDRPPRLPRPRPRPNHWPRP, the “shrunken log2 fold change” value worked out at 0.0735.

On to RRIRVRPPRLPRPRPRPDPCPRP, for which the “shrunken log2 fold change” value is -0.0596.

With RRIRRRPPRLPRPRPRPMTAPRP, the “shrunken log2 fold change” value worked out at 0.0357.

In the case of RRIRWRPPRLPRPRPRPVSTPRP, the “shrunken log2 fold change” value was 0.138.

Take RRIRIRPPRLPRPRPRPKRYPRP: the “shrunken log2 fold change” value was -0.118.

Consider RRIRSRPPRLPRPRPRPELQPRP, for which the “shrunken log2 fold change” value was found to be 0.239.

In the case of RRIRIRPPRLPRPRPRPWGPPRP, the “shrunken log2 fold change” value was 0.102.

As for RRIRWRPPRLPRPRPRPLGEPRP, the “shrunken log2 fold change” value came to 0.224.

For the sequence RRIRFRPPRLPRPRPRPPSQPRP, the “shrunken log2 fold change” value was -0.0751.

In the case of RRIRGRPPRLPRPRPRPMLHPRP, the “shrunken log2 fold change” value is 0.526.

On to RRIRYRPPRLPRPRPRPQHNPRP, for which the “shrunken log2 fold change” value was -1.13.

For RRIRKRPPRLPRPRPRPLDCPRP, the “shrunken log2 fold change” value is -0.0764.

On to RRIRCRPPRLPRPRPRPECEPRP, for which the “shrunken log2 fold change” value is 0.757.

Regarding RRIRTRPPRLPRPRPRPVWYPRP, the “shrunken log2 fold change” value was -0.456.

Take RRIRNRPPRLPRPRPRPMGMPRP: the “shrunken log2 fold change” value was -0.0761.

As to RRIRFRPPRLPRPRPRPMMLPRP, the “shrunken log2 fold change” value was -0.139.

As to RRIRVRPPRLPRPRPRPVECPRP, the “shrunken log2 fold change” value was -0.286.

For the sequence RRIRRRPPRLPRPRPRPDHMPRP, the “shrunken log2 fold change” value is -0.0178.

Consider RRIRCRPPRLPRPRPRPASEPRP, for which the “shrunken log2 fold change” value was determined as 0.49.

RRIRERPPRLPRPRPRPEKKPRP: the “shrunken log2 fold change” value is -0.0578.

Regarding RRIRHRPPRLPRPRPRPHYLPRP, the “shrunken log2 fold change” value worked out at 0.0305.

For RRIRKRPPRLPRPRPRPKLNPRP, the “shrunken log2 fold change” value came out at 0.218.

RRIRTRPPRLPRPRPRPFKCPRP: the “shrunken log2 fold change” value was -0.18.

Take RRIRFRPPRLPRPRPRPRYCPRP: the “shrunken log2 fold change” value is -0.647.

Regarding RRIRPRPPRLPRPRPRPHQTPRP, the “shrunken log2 fold change” value was -0.0729.

Consider RRIRIRPPRLPRPRPRPDVGPRP, for which the “shrunken log2 fold change” value was -0.284.

With RRIRPRPPRLPRPRPRPQLCPRP, the “shrunken log2 fold change” value was 0.444.

As to RRIRVRPPRLPRPRPRPLHCPRP, the “shrunken log2 fold change” value is 0.238.

Consider RRIRERPPRLPRPRPRPVMDPRP, for which the “shrunken log2 fold change” value is -0.0467.

For the sequence RRIRVRPPRLPRPRPRPPAVPRP, the “shrunken log2 fold change” value was 0.523.

RRIRYRPPRLPRPRPRPFYYPRP: the “shrunken log2 fold change” value was -1.18.

RRIRIRPPRLPRPRPRPRPSPRP: the “shrunken log2 fold change” value worked out at 0.322.

Take RRIRQRPPRLPRPRPRPVEDPRP: the “shrunken log2 fold change” value was -0.0933.

Regarding RRIRDRPPRLPRPRPRPWPHPRP, the “shrunken log2 fold change” value was -0.00987.

In the case of RRIRPRPPRLPRPRPRPWEAPRP, the “shrunken log2 fold change” value is -0.224.

As for RRIRARPPRLPRPRPRPHIVPRP, the “shrunken log2 fold change” value was -0.000968.

As to RRIRNRPPRLPRPRPRPGTHPRP, the “shrunken log2 fold change” value is -0.16.

With RRIRWRPPRLPRPRPRPRCGPRP, the “shrunken log2 fold change” value came out at 0.672.

As for RRIRFRPPRLPRPRPRPDFNPRP, the “shrunken log2 fold change” value was -0.637.

On to RRIRLRPPRLPRPRPRPQEEPRP, for which the “shrunken log2 fold change” value was -0.0207.

RRIRSRPPRLPRPRPRPMHAPRP: the “shrunken log2 fold change” value is 0.562.

RRIRSRPPRLPRPRPRPLEGPRP: the “shrunken log2 fold change” value was -0.131.

As to RRIRDRPPRLPRPRPRPNDWPRP, the “shrunken log2 fold change” value is -0.0967.

As for RRIRVRPPRLPRPRPRPDVAPRP, the “shrunken log2 fold change” value was -0.0974.

RRIRIRPPRLPRPRPRPRFQPRP: the “shrunken log2 fold change” value was -0.0961.

Consider RRIRLRPPRLPRPRPRPGTGPRP, for which the “shrunken log2 fold change” value was -0.0967.

RRIRHRPPRLPRPRPRPCKGPRP: the “shrunken log2 fold change” value was -0.0269.

In the case of RRIRTRPPRLPRPRPRPTEMPRP, the “shrunken log2 fold change” value worked out at 0.3.

With RRIRERPPRLPRPRPRPYDPPRP, the “shrunken log2 fold change” value is -0.0709.

Take RRIRERPPRLPRPRPRPAKTPRP: the “shrunken log2 fold change” value was -0.244.

RRIRTRPPRLPRPRPRPCAQPRP: the “shrunken log2 fold change” value is -0.05.

For the sequence RRIRVRPPRLPRPRPRPYVFPRP, the “shrunken log2 fold change” value is -0.136.

For the sequence RRIRLRPPRLPRPRPRPVGRPRP, the “shrunken log2 fold change” value was 0.215.

Take RRIRARPPRLPRPRPRPHSSPRP: the “shrunken log2 fold change” value was -0.137.

On to RRIRARPPRLPRPRPRPHWRPRP, for which the “shrunken log2 fold change” value turned out to be 0.319.

Regarding RRIRCRPPRLPRPRPRPPQMPRP, the “shrunken log2 fold change” value is 0.0913.

For RRIRFRPPRLPRPRPRPAISPRP, the “shrunken log2 fold change” value is -0.193.

As to RRIRERPPRLPRPRPRPNCSPRP, the “shrunken log2 fold change” value was -0.202.

Consider RRIRERPPRLPRPRPRPKRAPRP, for which the “shrunken log2 fold change” value was -0.145.

In the case of RRIRIRPPRLPRPRPRPTPGPRP, the “shrunken log2 fold change” value is 0.131.

Take RRIRYRPPRLPRPRPRPVYDPRP: the “shrunken log2 fold change” value was -0.112.

Regarding RRIRKRPPRLPRPRPRPDGKPRP, the “shrunken log2 fold change” value came to 0.0268.

For RRIRRRPPRLPRPRPRPNSAPRP, the “shrunken log2 fold change” value turned out to be 0.282.

RRIRSRPPRLPRPRPRPIGKPRP: the “shrunken log2 fold change” value turned out to be 0.0386.

As to RRIRIRPPRLPRPRPRPRQTPRP, the “shrunken log2 fold change” value was -0.0527.

As for RRIRDRPPRLPRPRPRPDLYPRP, the “shrunken log2 fold change” value came to 0.309.

In the case of RRIRYRPPRLPRPRPRPVYMPRP, the “shrunken log2 fold change” value was -1.34.

With RRIRQRPPRLPRPRPRPYQNPRP, the “shrunken log2 fold change” value was -0.816.

With RRIRIRPPRLPRPRPRPSGPPRP, the “shrunken log2 fold change” value was -0.21.

In the case of RRIRLRPPRLPRPRPRPGDDPRP, the “shrunken log2 fold change” value amounted to 0.431.

On to RRIRSRPPRLPRPRPRPVRFPRP, for which the “shrunken log2 fold change” value worked out at 0.488.

With RRIRCRPPRLPRPRPRPPFSPRP, the “shrunken log2 fold change” value was 0.236.

Turning to RRIRMRPPRLPRPRPRPIYTPRP, the “shrunken log2 fold change” value was -0.257.

As for RRIRVRPPRLPRPRPRPMIGPRP, the “shrunken log2 fold change” value is -0.112.

Take RRIRIRPPRLPRPRPRPGGSPRP: the “shrunken log2 fold change” value is -0.0491.

In the case of RRIRFRPPRLPRPRPRPLMVPRP, the “shrunken log2 fold change” value was -0.38.

Take RRIRIRPPRLPRPRPRPRCEPRP: the “shrunken log2 fold change” value was -0.0571.

In the case of RRIRIRPPRLPRPRPRPYVPPRP, the “shrunken log2 fold change” value was -0.212.

Turning to RRIRCRPPRLPRPRPRPMFMPRP, the “shrunken log2 fold change” value was -0.246.

As for RRIRRRPPRLPRPRPRPFWHPRP, the “shrunken log2 fold change” value is -0.0292.

For the sequence RRIRFRPPRLPRPRPRPCWSPRP, the “shrunken log2 fold change” value is -0.443.

In the case of RRIRARPPRLPRPRPRPHGLPRP, the “shrunken log2 fold change” value stood at 0.268.

For the sequence RRIRNRPPRLPRPRPRPAPTPRP, the “shrunken log2 fold change” value came out at 0.809.

Turning to RRIRARPPRLPRPRPRPAHRPRP, the “shrunken log2 fold change” value was 0.326.

For the sequence RRIRWRPPRLPRPRPRPIDTPRP, the “shrunken log2 fold change” value amounted to 0.00736.
